Assay results: patent publication US20230102344A1
Residue numbers refer to the chain shown, from its start.

B1: BJM0901 (bispecific antibody, not shown: a dimerising Fc or GST; large carriers)
heavy: QVQLVQSGAEVKKPGSSVKVSCKASGTDFKLTYIHWVRQAPGQGLEWMGRIFPGSGNVKYNEKFKGRVTITADTSTSTAYMELSSLRSEDTAVYYCAGSYYSYDVLDYWGQGTTVTVSSGGGGSGGGGSGGGGSGGGGSDIQMTQSPSFLSASVGDRVTITCKASQNVDNRVAWYQQKPGKAPKALIYSSSHRYKGVPSRFSGSGSGTEFTLTISSLQPEDFATYFCQQFKSYPLTFGQGTKLEIKGGGGSQVQLVQSGAEVKKPGSSVKVSCKASGYTFTDYNMHWVRQAPGQGLEWIGYIYPYNGGTGYNQKFKSKATITADESTNTAYMELSSLRSEDTAVYYCARGRPAMDYWGQGTLVTVSS
light: DIQMTQSPSSLSASVGDRVTITCRASESVDNYGISFMNWFQQKPGKAPKLLIYAASNQGSGVPSRFSGSGSGTDFTLTISSLQPDDFATYYCQQSKEVPWTFGQGTKVEIK
B2: BJM0498 (scFv, part only; not given: Fc scaffold making it bivalent, part only)
scFv, part: QVQLVQSGAEVKKPGSSVKVSCKASGTDFKLTYIHWVRQAPGQGLEWMGRIFPGSGNVKYNEKFKGRVTITADTSTSTAYMELSSLRSEDTAVYYCAGSYYSYDVLDYWGQGTTVTVSSGGGGSGGGGSGGGGSGGGGSDIQMTQSPSFLSASVGDRVTITCKASQNVDNRVAWYQQKPGKAPKALIYSSSHRYKGVPSRFSGSGSGTEFTLTISSLQPEDFATYFCQQFKSYPLTFGQGTKLEIK
B3: BJM0501 (scFv, part only; not given: Fc scaffold making it bivalent, part only)
scFv, part: B2 scFv, part with T27H, K30R, F52S, P53A, D169A, N170D

Experiments:
[1] = target: cynomolgus TCRvβ (BJM0847) (cynomolgus); test: SPR (Biacore), Table 21; set-up not restated
[2] = target: human TCRvβ (BIM0444) (human); test: SPR (Biacore), Table 21; set-up not restated
human TCRvβ (BIM0444) (human), sequence (A0A0K0K1A5 22-114): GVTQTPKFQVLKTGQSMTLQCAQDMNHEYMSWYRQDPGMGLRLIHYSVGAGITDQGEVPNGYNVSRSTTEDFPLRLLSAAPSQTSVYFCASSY

[3] = target: cynomolgus TCRvβ (BJM0847) (cynomolgus); test: SPR (Biacore), comparison with the parental antibody
[4] = target: cynomolgus TCRvβ (BJM0847) (cynomolgus); test: SPR (Biacore): antibody captured on Protein L chip, BJM0847 as analyte, 1:1 fit
[5] = target: human TCRvβ (BIM0444) (human); test: SPR (Biacore): antibody captured via anti-human Fc on CM5, BIM0444 as analyte, 1:1 fit

Binder | Kd [1] | Kd [2] | fold improvement of affinity compared to the parental antibody [3] | Kd [4] | Kd [5]
B1 | 55 nM | 7.09 nM |  |  | 
B2 | 86 nM | 7.9 nM | 6 fold | 86 nM | 7.9 nM
B3 |  |  | 6 fold | 87 nM | 4.1 nM
